Test results as given in the supplement of paper PMC10567573.
± gives the standard deviation.

Test: protein stability index of a GFP-peptide fusion (GPS, HEK-293T) (PSI 1-6); higher = more stable
[1] = treatment: DMSO, c terminus: a fixed tail appended
[2] = treatment: MLN4924 1 uM, 8 h, c terminus: a fixed tail appended
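Further: 24-mer peptide tiles fused after GFP, lentivirally expressed, FACS-sorted into six equal bins by GFP/DsRed ratio, decoded by Illumina sequencing, PSI is the read-weighted mean bin number.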

Row | Sequence | protein stability index [1] | protein stability index [2] | protein stability index (treatment: DMSO, c terminus: native) | protein stability index (treatment: MLN4924 1 uM, 8 h, c terminus: native)
1 | MEMAKFRYILPVYGICREPVGLVM [RIPK4] | 2.69 ± 0.39 | 3.08 ± 0.86 | – | –
2 | PMQERRASFYACRLDKHLYVIGGR [KLHL14] | 2.15 ± 0.49 | 2.23 ± 0.28 | – | –
3 | AELLLAARLLGALAARSGAAYGPG [TSPAN10] | 2.93 ± 0.069 | 2.77 ± 0.73 | – | –
4 | KDFANTIPGHGGIMDRFDCQYLMA [CDS2] | 2.69 ± 0.37 | 2.8 ± 0.26 | – | –
5 | TPVVTESTATSITLTWDSGNPEPV [PTPRD] | 4.21 ± 0.057 | 4.16 ± 0.33 | – | –
6 | FNGDFVDRGKDSVEILMILFAFML [PPEF2] | 2.62 ± 0.54 | 2.15 ± 0.27 | – | –
7 | SFRGAFSNSEKAKNIFRIRFHDPS [NET1] | 2.59 ± 0.34 | 2.65 ± 0.12 | – | –
8 | LESLEDTHIMKGEDDALSDKHGCP [TRIB1] | 5.23 ± 0.69 | 5.37 ± 0.57 | – | –
9 | YIRAPPRSKIYLRFLDYEMQNSNE [NETO1] | 2.28 ± 0.16 | 2.44 ± 0.22 | – | –
10 | SDLGFEVKCFNDLKAEELLLKIHE [CASP6] | 2.48 ± 0.28 | 2.69 ± 0.37 | – | –
11 | GLLALAIGLWGLAVKGSLGSDLGG [TSPAN10] | 4.49 ± 0.53 | 3.4 ± 0.37 | – | –
12 | RMDKRTLALLVLAHSSDVLENVFS [GOLPH3L] | 2.37 ± 0.53 | 2.22 ± 0.23 | – | –
13 | MPAHLLQDDISSSYTTTTTITAPP [SCD] | 3.99 ± 0.21 | 3.88 ± 0.28 | – | –
14 | HARYRVIHFIAVAVCLLGVGTMVG [SLC35F2] | 2.42 ± 0.42 | 2.28 ± 0.15 | – | –
15 | KEAAEAIEAEGATAPLTELLHSRN [CTNNB1] | 5.38 ± 0.28 | 5.28 ± 0.11 | – | –
16 | LSEEEEDEEEEEEEEEEGRFYYSE [KCNA4] | 5.2 ± 0.16 | 5.19 ± 0.39 | – | –
17 | CCCCYQSKSLMTSVPMNGTSIQWK [EDNRA] | 2.2 ± 0.26 | 2.39 ± 0.31 | – | –
18 | NFDSIYICPSTFACAQLATGAACR [HDAC6] | 2.24 ± 0.21 | 2.16 ± 0.26 | – | –
19 | VKEKGSTLDLSDLEAEKLVMFQRR [SCD] | 4.06 ± 0.31 | 3.97 ± 0.31 | – | –
20 | KKFELVPSPPTSPPWGLGPGAGDP [MYCL] | 4.1 ± 0.28 | 4.07 ± 0.21 | – | –
21 | RRITYLQNPKDCSKAKKLVCNINK [FUT8] | 2.77 ± 0.28 | 3.05 ± 0.26 | – | –
22 | FGGVDGLLAGGEKATMQNLNDRLA [KRT17] | 3.5 ± 0.32 | 3.69 ± 0.26 | – | –
23 | KPLYVAFSFMYILVGLTVIGAFLN [KCNK9] | 2.79 ± 0.67 | 2.97 ± 0.62 | – | –

Row | Sequence | protein stability index [1] | protein stability index [2] | protein stability index (treatment: DMSO, c terminus: native) | protein stability index (treatment: MLN4924 1 uM, 8 h, c terminus: native)
24 | SGGPPPKRSAPSGPVRSSSGMGGR [RBMX] | 4.59 ± 0.29 | 4.51 ± 0.21 | – | –
25 | TDILDLENQRENLEQPFLSVFKKG [PLEKHN1] | 4.52 ± 0.07 | 4.24 ± 0.21 | – | –
26 | VIVKEGGLKLIQIQDNGTGIRKED [MLH1] | 3.44 ± 0.33 | 3.48 ± 0.41 | – | –
27 | GLHLTDPSQRLVQNCLWTLRNLSD [CTNNB1] | 2.29 ± 0.31 | 2.45 ± 0.27 | – | –
28 | MSSQVVGIEPLYIKAEPASPDSPK [ESRRA] | 4.86 ± 0.12 | 4.89 ± 0.095 | – | –
29 | NNVVDISVPPTTDGQKPNKLQCCQ [RAB11B] | 4.72 ± 0.26 | 4.58 ± 0.12 | – | –
30 | SIKGSSGLGGGSSRTSCRLSGGLG [KRT17] | 3.39 ± 0.19 | 3.42 ± 0.28 | – | –
31 | NALVTKLLLDCGAEVNAVDNEGNS [FEM1B] | 3.64 ± 0.19 | 3.72 ± 0.17 | – | –
32 | GGQCCRRQDSPSPDFYKQSSPNLQ [PCDHGC5] | 3.77 ± 0.33 | 3.78 ± 0.23 | – | –
33 | RAASENSQDALRVVSTSGEQMKVY [IKZF1] | 4.26 ± 0.57 | 4.78 ± 0.29 | – | –
34 | IYGPGNLSTNNNTLRDHFKGISSH [SLC2A12] | 2.95 ± 0.26 | 3 ± 0.14 | – | –
35 | LDQALKEGGKLPPPPPPSYDPDYI [ZC2HC1A] | 4.95 ± 0.16 | 4.89 ± 0.16 | – | –
36 | SGAFQWEELEEDIRKKLKDSGDVS [RHOBTB3] | 5.17 ± 0.27 | 5.2 ± 0.34 | – | –
37 | SLDWETFEQYCAWQLFLAHNIPLE [INTS3] | 2.3 ± 0.43 | 2.16 ± 0.32 | – | –
38 | KKEMNKSDLNTNNLLFKPPVESHI [KMT2E] | 3.47 ± 0.39 | 4.12 ± 0.26 | – | –
39 | IKTTLRELLVYIVFLVDICLLTYG [PKD2L1] | 2.98 ± 0.45 | 2.93 ± 0.53 | – | –
40 | QEPQSPQKLNPGFDLAKGNAGKVN [PLAGL1] | 5 ± 0.2 | 4.89 ± 0.39 | – | –
41 | NASHKLEVRLVPVSFEDPEFKSSF [ATE1] | 2.65 ± 0.25 | 3.18 ± 0.19 | – | –
42 | LSPLRAASDPLLSSVSPAVSKASS [TFE3] | 4.47 ± 0.18 | 4.68 ± 0.067 | – | –
43 | AAHAAQAHRERNEFPEDPEFEAVV [PI4K2A] | 5.29 ± 0.66 | 5.3 ± 0.28 | – | –
44 | QAFRAIDRGDYYLEGYRDNAYKDL [PCMTD1] | 2.85 ± 0.19 | 2.98 ± 0.53 | – | –
45 | MEEVLLLGLKDKEGYTSFWNDCIS [GOLPH3L] | 2.29 ± 0.29 | 2.61 ± 0.27 | – | –
46 | EKRLQEIEELEREAERKIIEENIT [SRPK2] | 5.03 ± 0.33 | 5.39 ± 0.26 | – | –

Row | Sequence | protein stability index [1] | protein stability index [2] | protein stability index (treatment: DMSO, c terminus: native) | protein stability index (treatment: MLN4924 1 uM, 8 h, c terminus: native)
47 | KKIYCRICMAQIAYSGNTSNLSYH [ZBED1] | 2.19 ± 0.28 | 2.13 ± 0.3 | – | –
48 | VPSEWLSSVYKQQWFAMLRAEQDS [GMCL1] | 2.47 ± 0.19 | 2.43 ± 0.17 | – | –
49 | RENSSDSPKELKRRNSSSSMSSRL [DLC1] | 5.13 ± 0.23 | 5.05 ± 0.3 | – | –
50 | ECSYTSADGQRHHSKLLVSGFWGV [DHCR7] | 2.09 ± 0.1 | 2.17 ± 0.31 | – | –
51 | SITVSKVDKDQPSILNSCEDPVPG [FBXO34] | 5.25 ± 0.22 | 5.25 ± 0.12 | – | –
52 | TQDGKEQPELPCAMAMGTPSTTER [PXN] | 5.21 ± 0.27 | 5.18 ± 0.3 | – | –
53 | ELMPSSRLWSLSYTKLPSSLQSTG [SLC25A39] | 2.48 ± 0.13 | 2.47 ± 0.14 | – | –
54 | GSLCAIAGVLTIALPVPVIVSNFN [KCNA4] | 3.33 ± 0.42 | 3.13 ± 0.36 | – | –
55 | QARYHDTPYKPPAGRAAAPELSYR [MYORG] | 3.69 ± 0.15 | 3.85 ± 0.13 | – | –
56 | RGGGDPWTNGSGLALCQRYYHRGH [MCOLN1] | 3.08 ± 0.23 | 3.2 ± 0.28 | – | –
57 | LCNEISLSEIKDAPKVNAVDTLNV [DLC1] | 3.77 ± 0.4 | 3.81 ± 0.25 | – | –
58 | APVPEPPKEEQQQALEQFAAAAAH [EPB41L3] | 5.54 ± 0.21 | 5.56 ± 0.17 | – | –
59 | TMQSMFAKNFHVKAVMKTSVLLSW [PTPRD] | 2.48 ± 0.73 | 2.94 ± 0.42 | – | –
60 | SELTSLCQSVLEDFNLCLFYLPSS [SMG5] | 2.65 ± 0.64 | 2.42 ± 0.39 | – | –
61 | PSDKVGRADAHLGSSSVALPKEAS [TOR1AIP2] | 5.23 ± 0.14 | 5.04 ± 0.091 | – | –
62 | RMRLFGQRCQKCSWSQYEMPEFSS [RTP4] | 2.42 ± 0.52 | 2.2 ± 0.23 | – | –
63 | DMAGDWHWALRVTPGLGVVAVLLL [SPNS1] | 2.82 ± 0.41 | 2.5 ± 0.48 | – | –
64 | LEAIQLDGEILFSLLQKVSPVAHK [TBC1D10A] | 2.12 ± 0.48 | 2.01 ± 0.34 | – | –
65 | SRGGPPPPPPPPHNSGPPPPPARG [WASL] | 5.13 ± 0.26 | 5.07 ± 0.07 | – | –
66 | AEMFRRKPLFCGNSEADQLGKIFD [CDK4] | 2.98 ± 0.17 | 3.06 ± 0.2 | – | –
67 | EFRAHRAVLAASSPYFHDQVLLKG [ZBTB22] | 2.57 ± 0.23 | 2.77 ± 0.4 | – | –
68 | AGEPGHSPADYLRFQDLVLRMLEY [DYRK1B] | 2.27 ± 0.38 | 2.33 ± 0.22 | – | –
69 | LKLRQQVIATATVYFKRFYARYSL [CCNC] | 2.85 ± 0.51 | 2.49 ± 0.18 | – | –

Row | Sequence | protein stability index [1] | protein stability index [2] | protein stability index (treatment: DMSO, c terminus: native) | protein stability index (treatment: MLN4924 1 uM, 8 h, c terminus: native)
70 | NGNSYICKCSEGFVLAEDGRRCKK [MATN2] | 3.75 ± 0.28 | 4.1 ± 0.19 | – | –
71 | WTRNPDDITQEEYGEFYKSLTNDW [HSP90AB1] | 3.81 ± 0.15 | 3.82 ± 0.41 | – | –
72 | TGLMVSLLCLLHFSIVSVAAHLAL [RTN2] | 3.27 ± 0.11 | 2.87 ± 0.27 | – | –
73 | YNIPHGPVVGSTRRLYEKKIFEYE [EMD] | 3.18 ± 0.29 | 3.23 ± 0.14 | – | –
74 | GWGEVMLMADKVLRWERAWFPPAI [ARL6IP1] | 2.87 ± 0.48 | 3.04 ± 0.78 | – | –
75 | LLPLRTKVAKLLGYSTHADFVLEM [NLN] | 2.22 ± 0.43 | 2.32 ± 0.28 | – | –
76 | AILVMHHSMKPHPAITATLLDFMC [INTS3] | 2.91 ± 0.36 | 2.98 ± 0.47 | – | –
77 | SCSQGSGILHYAHGDSQQTHLLKQ [CRY1] | 3.29 ± 0.16 | 3.31 ± 0.2 | – | –
78 | PGLLGSMALSNHYRSEDLLDVDTA [FBXO3] | 4.24 ± 0.097 | 4.32 ± 0.24 | – | –
79 | DELTLARTDLEMQIEGLNEELAYL [KRT15] | 4.1 ± 0.21 | 4.42 ± 0.36 | – | –
80 | GYPLPKLDMNFSLENREEPWVKEL [ZNF449] | 3.53 ± 0.12 | 3.7 ± 0.2 | – | –
81 | ERFHGVGILGFNSAEWFITAVGAI [ACSBG2] | 2.75 ± 1.1 | 2.78 ± 1.3 | – | –
82 | KQGQCTKGDKCKFSHDLTLERKCE [ZC3H15] | 4.75 ± 0.15 | 4.6 ± 0.1 | – | –
83 | VSVESQQVQQVEVEATVKPELTAA [PRPH] | 5.23 ± 0.089 | 5.25 ± 0.12 | – | –
84 | VESVFFGGGTPSLASPHTVAAVLE [RSAD1] | 2.97 ± 0.18 | 3.02 ± 0.47 | – | –
85 | DRGGWGISPRGAGYTFGQDISETF [PPP2CA] | 3.21 ± 0.18 | 3.3 ± 0.34 | – | –
86 | EDEDIYKLRHDLKKTSITQQPSKH [PLK2] | 4.98 ± 0.35 | 5.1 ± 0.13 | – | –
87 | LPVDDDSDLNVVASFDRRGEYIYT [RBBP5] | 3.41 ± 0.25 | 3.7 ± 0.28 | – | –
88 | VWKHGITPPLKNVRKKRFRKTQKK [TAF7L] | 3.46 ± 0.16 | 3.86 ± 0.17 | – | –
89 | LQFDPAPRRGEPHVTRRTPDYFL [PPP2CA] | – | – | 4.16 ± 0.3 | 4.18 ± 0.18
